In the nanobody polyreactivity screen of Harvey et al. (2022):

Test: yeast display, Sf9 membrane polyspecificity reagent, FACS + sequencing; frameworks hold sequencing errors
Method in brief: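 Synthetic nanobody libraries on Saccharomyces cerevisiae BJ5465 were galactose-induced for 36–48 hours, stained 1 hour at 4 °C with 10% biotinylated, detergent-solubilized Sf9 membrane reagent and enriched on streptavidin microbeads. FACS then separated cells into low and high (top ~1%) gates by anti-HA (expression) and streptavidin (reagent binding) fluorescence. Genes were colony-PCR amplified, MiSeq 2 × 250 sequenced and CDR-length filtered. A clone's polyreactivity label is that of its gate of origin.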

Sequence | polyreactivity (PSR sort gate)
QVQLVESGGGIVQAGGSLRLSCAATGRTFGYNAMGWYRQAPGKERELVAAIRTIGDSTYYADSVKGRFTISRDNAKNTVYLQMNSLKPEDTAVYYCAARKLRSRYDYWGQGTQVTVSS | high polyreactivity
QVQLVESGGGIVQAGGSLRLSCAGSGRTFLWNAMGWYRQAPGKERELVARINLSGGRTYYADSVKGRFTISRDNAKKTVNLQMNSLKPEDTAFYYCAATVVRYRRDSWGQGTQVTVSS | low polyreactivity
QVQLVESGGGIVQAGGSLRLSCPASGSIFDTYAMGWYRPAPGKEREMVASWSGGSTYYADSVKGRFTISRDNAKNTVYLQMISLKPEDTAVDYCAKDYYVQPPGTRDDYWGQGSQVTVSS | low polyreactivity
QVQLVESGGGIVQAGGSLRLSFAASGSIFEINALGWYRQAPGKERELVAAITGSGGSTHYADSVKGRFTISRDTAKNTVYLQMNSLKPEDTAVYYCARTQRYDYGYDYWGQGTQVTVSS | low polyreactivity
QVQLVESGGGIVQAGGSLRLSIAASGNILNGNVMGWSRPEPGKERELVAAITSGGDTYYADSVKGRFTISRDNAKNTVYFQMNSLKPEDTAVYYCAADRPGQPKYEYWGQGTQVTVSS | low polyreactivity
QVQLVESGGGIVQAGGSLRLSSAASGFIFRYYAMGWYRQARGNEREWVAAISSGGRTSYADSVKGRFTISRDNAKNTVYLQMNSLTPEDTAVYYCAADRWRCLFYYGNDYWGQGTQVTVSS | high polyreactivity
QVQLVESGGGIVQAGGSLRLSSAASGNKFSLNGMGWYRQAPGKEREFVAAITWSVGSRYYADSVKGRLTISRDNAKHTVYLPMNILKPEDTAVYYCAATVSDLYKIEYYYWGQGTQVSVSS | low polyreactivity
QVQLVESGGGIVQAGGSLRLSWAASGRNFLDYTMGWYRQAHGKERELVAAIRTSAGSTYYADSVKGRFTISRDNAKNTVYLQMNILKPEYTAVYYCAAEYYVQYYYRYDYWGQGTQVTVSS | low polyreactivity
QVQLVESGGGIVQAGGSLSLSCAASGRSFRYYAMGWYRQAPGKEREMVAAIDTSSGSTYYADSVKGRFTISRDNAMNTVFLQMNSLKPEDTAVYYCNATWWIPLIYDYWGQGTHVTVSS | low polyreactivity
QVQLVESGGGIVQAGRSLRLRCAASGSTFTPYGMGWYRQAPGKESELVAAITVSGGRTYYADSVKGRFTISRDNANNTVSLVMNSLKPEDTAVYYCAAVYLRADGDYDYWGQGTQVNVSS | low polyreactivity
QVQLVESGGGIVQAGVSLRLSCAASGINIDYYAMGWYRQAPGKERELVAAITSGGSTSYADSVKGRFTISRDNAKNTVYLQMNSLKAEDTAVYYCNTEPSGYESGYWGQGTQVTVSS | low polyreactivity
QVQLVESGGGIVQEGGSLRLSCAASGSTFDQNGMGGYRQAPGKERELVATISTSAGTYYADSVKGRFTISRDNAKNTVYLQMNSLKPEDTAVYYCNADLGGQYKEFDYWGQGTQVTVSS | low polyreactivity
QVQLVESGGGIVQSGGSLRLSCAASGRTFSSYAMGRYRQAPGKEMALVAAINRGGGSTYYADSVKGRFTISRDNAKNTVYLQMNSLKPEDTAVYYCNARSKLTYEYDYWGQGTQVTVSS | high polyreactivity
QVQLVESGGGKLQAGGSLRLSCAASGIILYVYAMGWYRQAPGKARELVAAITWSGGSTYYADSEKGRFTISRDNAKNTVYLQMNSLKPEDTAVYYCAVDVHTSADASLPQEYDYWGPGTQVTVSS | low polyreactivity
QVQLVESGGGKVQAGGSLRLSCAASGRIFYLNAMGWYRQAPGKEREFVAAITRNGGNTYYADSVKGRFTISRDNAKNTVYLQMNSLKPEDTAVYYCNAKYWPFSRWYYYWGQGTQVTVSS | high polyreactivity
QVQLVESGGGLDPAGGSLRLSCAASGITFSYYAMGWYRQAPGKERELVAAISSSGSTYYADSVKGRFTISRDNAKNTDYLQMNSLKPEDTAVYYCAAEIRYYEYDYWGQGTQVTVSS | low polyreactivity
QVQLVESGGGLDQAAGSLRLSCAASGSNFQWYTMGWYRQAPGKERELVAAITWSGASTYYADSVKGRFTISRDNAKNTVYLQMNSLKPEDTAVYYCAADWRRGTGFYYWGQGTQVTVSS | high polyreactivity
QVQLVESGGGLDQAGCSLRISCAASGRIFIQNTMGWYRQAPGKERELVAAITRSGGRTYYADSVKGRFTFSRDNAKNTVYLQMNSLKPEDTAVYYCNRRPATRAYLYDYWGQGTQVTVSS | high polyreactivity
QVQLVESGGGLDQAGGCLRLSSAASGIIFYYNRMGCDRQAPGKERDLVADISGDGSTNYADSVKGRFTISRDNAKNTLYLQINSLKPDDTAFYYCNSDDIFRPRDDLYDYWGQGTQVTVSS | low polyreactivity
QVQLVESGGGLDQAGGRLRLSCAASGFTIRDNAMGWYRQAPGKEMELVAAISRSGDSTNYADSVKGRFTISRDNAKNTVYLQMNSLKPEDTAVYYSAAKRRYTTYDYWGQGTLVTVSS | high polyreactivity
QVQLVESGGGLDQAGGSLRLICAASGRIFVYYTMVWYRQAPGKERELVAAITGSGGSTYYADSVKGRFTISRDNAKNTVYLQMNSLKPEDTAVYYCAVYDSYRSRTHRYPATFAYGSWGQGNQVTVSS | high polyreactivity
QVQLVESGGGLDQAGGSLRLSCAASASIFQRSAKCWYRQAPGKETELVAAITNGGGSTYYADSVKGRFTISRDNAMNTVYLQMNSLKPEDTAVYYCAKDGHSYYPWEYDYWVQGTQVTVSS | low polyreactivity

Sequence | polyreactivity (PSR sort gate)
QVQLVESGGGLDQAGGSLRLSCAASGFIFVRNAMGWYRQAPGKERELVAAITGRGGRTYYADSVKGRFTISRDNAKNTVYLQMNSLKPEDTAVYYCAKDSPDDHFGYWGQGTQVTVSS | high polyreactivity
QVQLVESGGGLDQAGGSLRLSCAASGFTFARYTMGWYRQAPGKEREFVAAISWSGGRTYYADSVKGRFTISRDNAKNTVYLQMNSLKPEDTAVYYCAARRKTTKYDYWGQGTQVTVSS | high polyreactivity
QVQLVESGGGLDQAGGSLRLSCAASGFTSGYNVLGWYRQAPGTARELVAAISWRGTSTYYADSVKGRFTISRDNAKNTVYLQMNSLKPEDTAVYYCAARQRWYWRGYDYWGQGTQVTVSS | high polyreactivity
QVQLVESGGGLDQAGGSLRLSCAASGGIFYHNAMGWYRQAPGKERELVAVISWSRTRTYYADSVKGRFTISRDNAKNTVYLQMNILTPDDTAVYYCAASPDPYWVRMDYWGQGTQVNVSS | high polyreactivity
QVQLVESGGGLDQAGGSLRLSCAASGGTFSNYAMGWYRQATGKERELVAAISESGGSTYYADSVKGRFTISRDNAKNTVYLQMNSLKPEDTAVYYCAVGTRFYVPRRFDYWGQGSQVTVSS | high polyreactivity
QVQLVESGGGLDQAGGSLRLSCAASGIIFRNYAMGWYRQAPGKERELVATITGDGGSTYYADSVKGRFTISRDNAKNTVYLQMNSLKPEDTAVYYCNADVSKRGWTTYWYGYGYYYWGQGTQVTVSS | low polyreactivity
QVQLVESGGGLDQAGGSLRLSCAASGIIFVKYTMGWYRQAPGTERELVAAISRSGGSTYYADSVKGRFTISRDNAKNTVYLQMNSLKPEDTAVYYCNAVSRKVYPGPMDYWGQGTQVTVSS | high polyreactivity
QVQLVESGGGLDQAGGSLRLSCAASGIIFWYNARGWYRQAPGKERELVAAINYGGSTNYADSVKGRFTISRDNAKNTVYLQMNSLKQEDTAVDYCNADRSVIHRGYIWQPGRNDYWGQGTQVNVSS | low polyreactivity
QVQLVESGGGLDQAGGSLRLSCAASGITFDYYAIGWYRQAPGKERELVAAISRAGSTNYADSVKGRFTISRDNAKNTVYLQMNSLKPEDTAVYYCNNGYHSWSRLSQFGWSYDYWGQGTQVTVSS | high polyreactivity
QVQLVESGGGLDQAGGSLRLSCAASGITFGFNAMGWYRQAPGIERELVAAITYRGGSTYYADSVKGRFTISGDNAKNTVYLQMNSLKPEDTAVYYCAADIGRHTDNYDPRYDYWGQGTQVTVSS | low polyreactivity
QVQLVESGGGLDQAGGSLRLSCAASGITFTSYAMGWYRQAPGTEREFVAAISWTDTSTYYADSVKGRFTISRDNAKNTVYLQMNSLKPEDTAVYYCADEYEVGYFGYEYWGQGTQVTVSS | high polyreactivity
QVQLVESGGGLDQAGGSLRLSCAASGITIIGYAMGWYRQAHGKERELVASITSGANTNYADSVKGRFTISRANAKNTVYFQMNSLKPEATAVYYCAAPEHGTYANILGEPLDYWGQGSQVTVSS | low polyreactivity
QVQLVESGGGLDQAGGSLRLSCAASGLIFKLYDMGWSRQAPGKERELVATISRGTSTYYADSVKGRFTISRDNAKNTVDLQMNSLKPEDTAVYYCNARLDYGRAFPLFKYISGMYYWGQGTQVTVSS | low polyreactivity
QVQLVESGGGLDQAGGSLRLSCAASGLIFQVYAMGWYRQAPGKERELVAAISRSGGRTYNADSVKGRFTISRDNAKNTVYLQMNSLKPEDTAVYYCAAESYVDYPRWYDYWGQGTQVTVSS | high polyreactivity
QVQLVESGGGLDQAGGSLRLSCAASGNIFPAYAMGWYRQAPGKERELVAAISKSGGRTYYADSVKGRFTISRDNAKKTVYLVMNSLKPEDSAVYFCAARDRRYQWTSWYDYWGQGTQVTVSS | high polyreactivity
QVQLVESGGGLDQAGGSLRLSCAASGNIFSDSTMGWYRQAPGKEIELVAAISGDGGTTYYADSVKGRFTISRDNAKHTVYLQMNSLKPEDTAVYFCAGDGYYDAYDQFFIVYYEYDYWGQGTQVTVSS | low polyreactivity
QVQLVESGGGLDQAGGSLRLSCAASGNIVYNGMGWYRQAPGKERELVAAIRGSGGRTYADSVKGRFTISRDNAKNTVYLQMNSLKPEDTAVYYCATRRWYAYGVYYWGQGTQVTVSS | high polyreactivity
QVQLVESGGGLDQAGGSLRLSCAASGRIFPFNAMGWYRQAAGKERELVASIRSTGGNTYYADSVKGRFTISRDNAKNTVYLQMISLIPEDSAVYYWGQGTQVTVSS | low polyreactivity
QVQLVESGGGLDQAGGSLRLSCAASGRIFSYYTMGWYRQAPGKERELVAAITWGGGSTSYADSVKGRFTISRDNAKNTVYLQMNSLKPEDTAVYYCAESPGANRMDYWGQGTQVTVSS | low polyreactivity
QVQLVESGGGLDQAGGSLRLSCAASGRIIRYYAKGWYRQAPGKEREFVATISSGGSTNYADSVKGRFTISRDNAKNNVYLQMNSLKQEHTSVYYCNRVYSRHVWGQGTQVTVSS | high polyreactivity
QVQLVESGGGLDQAGGSLRLSCAASGRILTGYAMGWYRQAPVKVRELVAAISNDTDSTHYADSVKGRFTISRDNAKKTVYLQMNSLKPEATAVYYCATDAPLQKRWRRFDYWGQGTHVTVSS | low polyreactivity
